Laboratory results taken from patent publication US12338268B2, “Compositions and methods for treating protein aggregation-associated diseases” (The Board of Trustees of the Leland Stanford Junior …, priority 2019, dated 2025).
“Also recorded” adds a separate entry of the source.

Key:
[1] = biological target: GdmCl-denatured firefly luciferase (Photinus pyralis, UniProt P08659); assay: Luciferase refolding assay; type: biochemical
[2] = biological target: T1, full-length Ataxin-3 (AtxQ78) (Homo sapiens, UniProt P54252, INS305QQQQQQQQQQQQQQQQQQQQQQQQQQQQQQQQQQQQQQQQQQQQQQQQQQQQQQQQQQQQQQQQ); assay: Filter trap aggregation assay of AtxQ78; type: biochemical; settings: equimolar (1×) NAC, 37° C.
T1 construct: full-length Ataxin-3 harboring a stretch of 78 glutamines (AtxQ78); made in house
T1 sequence (P54252 with tags, fused parts or gaps with the stated changes): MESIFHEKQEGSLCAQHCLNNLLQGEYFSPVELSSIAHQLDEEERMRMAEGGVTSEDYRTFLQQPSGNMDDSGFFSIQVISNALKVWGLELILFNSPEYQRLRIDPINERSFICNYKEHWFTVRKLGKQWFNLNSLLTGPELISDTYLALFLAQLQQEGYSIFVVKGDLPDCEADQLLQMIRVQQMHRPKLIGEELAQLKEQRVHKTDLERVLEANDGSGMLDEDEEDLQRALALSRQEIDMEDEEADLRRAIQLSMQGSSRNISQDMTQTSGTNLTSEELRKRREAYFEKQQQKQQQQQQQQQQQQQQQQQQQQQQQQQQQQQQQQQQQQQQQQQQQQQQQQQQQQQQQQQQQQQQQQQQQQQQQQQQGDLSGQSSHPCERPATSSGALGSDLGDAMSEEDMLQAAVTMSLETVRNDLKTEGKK
Description: (§1) Mutant Huntingtin and PolyQ51 aggregation reactions were performed at concentration 3 μM of mHttQ51, 0.044 Units/μl acTEV protease (Invitrogen, Carlsbad, CA, USA), and respective concentrations of Ovalbumin (Sigma) or purified NAC chaperone variants. Aggregation was conducted in TEV reaction buffer (Invitrogen) and incubated at 30° C. AtxQ78 was buffer exchanged into TEV reaction buffer using 7K MWCO Zeba Spin Desalting Columns (Thermo Fisher) to initiate aggregation. AtxQ78 aggregation reactions were performed at 30 μM of Ataxin-3 in reaction buffer (20 mM sodium phosphate pH 7.5, 25 mM NaCl, 6 mM MgCl2, 2 mM DTT, 5% (v/v) glycerol) and incubated at 37° C. Samples at varied time-points were then taken and combined in a 1:1 ratio with a 4% (w/v) SDS, 100 mM DTT solution, boiled for 5 min at 95° C., and stored at −20° C. Samples were then filtered through a 0.22 μm cellulose acetate membrane (Whatman) and washed with 0.1% (w/v) SDS. Membrane was probed using an S-tag antibody (Abcam) for mHttQ51 and PolyQ51, and with a His-tag antibody (Abcam) for AtxQ78.

[3] = biological target: T2, AtxQ78 (Homo sapiens, UniProt P54252, INS305QQQQQQQQQQQQQQQQQQQQQQQQQQQQQQQQQQQQQQQQQQQQQQQQQQQQQQQQQQQQQQQQ); assay: Chemical crosslinking (BS3) and mass spectrometry of NAC-AtxQ78 complexes; type: binding; settings: NAC and AtxQ78 1:1, BS3 crosslinker, LC-MS
T2 construct: full-length Ataxin-3 harboring a stretch of 78 glutamines (AtxQ78); made in house
T2 sequence (P54252 with tags, fused parts or gaps with the stated changes): as the sequence (P54252 with tags, fused parts or gaps with the stated changes) above
Description: For crosslinking AtxQ78 was buffer exchanged into 10 mM sodium phosphate (pH 7.2) and added to NAC at a 1:1 ratio (20 μM NAC+20 μM AtxQ78). A 1:1 mixture of BS^3-d^0 and BS^3-d^4 was added to the proteins at 20× and 50× molar excess and the reaction allowed to proceed at room temperature for 1 hour before quenching with the addition of 50 mM Tris-Cl (pH 7.5). Samples were diluted with 2× loading buffer and separated on Tris-tricine gels followed by staining with InstantBlue (Expedeon).
Gel pieces containing the crosslinked complexes were washed with 25 mM ammonium bicarbonate (pH 7.8) for 1 h with shaking. The solution was removed and the pieces destained three times with 25 mM ammonium bicarbonate in 60% acetonitrile. Gel pieces were dehydrated with 100% acetonitrile for 10 min and left to air-dry in a laminar flowhood for 1 h. Rehydration of the gel pieces was achieved by adding 0.1 mg/ml trypsin solution and incubating the samples on ice for 30 min. Excess trypsin was removed and the samples were incubated at 37° C. and 1000 rpm overnight. Peptides were extracted from the gel using 3 washes with 60% acetonitrile/5% formic acid. The extracts were pooled and concentrated using a SpeedVac before being analyzed using a nanoACQUITY LC-system coupled to a Synapt HDMS G2Si mass spectrometer. […]

[4] = biological target: T3, Aβ40 (Homo sapiens, UniProt P05067); assay: Transmission electron microscopy of Aβ40 reaction endpoint; type: biochemical; settings: reaction endpoint at 20 h, equimolar NAC
T3 construct: Aβ40 peptide was expressed and purified as described previously; made in house; host or cells: E. coli BL21 (DE3)
Description: After 20 h, samples were taken from the Thioflavin T plate and fixed on carbon coated copper grids, made in house. The samples were negative stained with 2% (w/v) uranyl acetate. The samples were imaged on a JEOL 1400 TEM at the Astbury structural biology laboratory, University of Leeds.

[5] = biological target: T4, mutant Huntingtin exon 1 (mHttQ51) (Homo sapiens, UniProt P42858, INS38QQQQQQQQQQQQQQQQQQQQQQQQQQQQQQQ); assay: In vitro filter trap aggregation assay of mutant Huntingtin exon 1; type: biochemical
T4 construct: mutant Huntingtin exon 1 containing a pathogenic stretch of 51 glutamines (mHttQ51); GST (N, cleaved yes); made in house; host or cells: E. coli Rosetta 2(DE3) pLysS
T4 sequence (P42858 with tags, fused parts or gaps with the stated changes limits assumed): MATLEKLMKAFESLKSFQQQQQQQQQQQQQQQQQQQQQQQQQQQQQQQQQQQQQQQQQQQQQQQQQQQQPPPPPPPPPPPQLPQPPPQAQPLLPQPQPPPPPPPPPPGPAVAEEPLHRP
Description: as §1

[6] = test system: PolyQ51; assay: In vitro filter trap aggregation assay of PolyQ51; type: biochemical; settings: 5× molar excess, SDS-insoluble aggregates
Description: as §1

[7] = biological target: T3, Aβ40; assay: Thioflavin T fluorescence assay of Aβ40 aggregation; type: biochemical; settings: equimolar NAC variant and Aβ40 (32 μM FIG. 4C; 18 μM FIG. 12C), 37° C., 20 h
Description: Lyophilized Aβ40 was resuspended at 320 μM in 20 mM sodium phosphate pH 7.4, 0.2 mM EDTA, 0.01% (w/v) sodium azide and stored on ice. The NAC proteins were diluted to 100 μM in storage buffer (20 mM sodium phosphate pH 7.5, 25 mM NaCl, 6 mM MgCl2, 2 mM β-mercaptoethanol, 5% (v/v) glycerol) and buffer exchanged into 20 mM sodium phosphate pH 7.4, 0.2 mM EDTA, 0.01% (w/v) sodium azide, 1× complete mini protease inhibitor, EDTA free (Roche) by means of ZebaSpin 7 kDa MWCO spin columns (Thermo Scientific). Samples were prepared that contained equimolar concentrations of Aβ40 and NAC variants. Thioflavin T was added to a final concentration of 10 μM. The samples were transferred to a 96 well half-area clear bottom microplate (Corning GmbH, Wiesbaden, Germany), with 95 μL of sample in each well. The fluorescence (excitation: 440 nm, emission: 480 nm) was measured using a BMG Omega plate reader (BMG Labtech) incubating samples at 37° C., quiescently.

[8] = test system: HttQ44-BodipyTMR; assay: Fluorescence quenching assay of HttQ44-BodipyTMR aggregation; type: biochemical; settings: titrations of chaperones, 24-hour time period
HttQ44-BodipyTMR, sequence (P42858 with tags, fused parts or gaps with the stated changes limits assumed): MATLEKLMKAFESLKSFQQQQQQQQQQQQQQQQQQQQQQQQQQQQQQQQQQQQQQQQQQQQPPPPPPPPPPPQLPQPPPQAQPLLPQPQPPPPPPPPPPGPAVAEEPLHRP
Excerpt: FIGS. 17A-17B show a fluorescence quenching assay as a reporter for early events in Htt aggregation.
A fluorescence quenching assay was used to monitor aggregation of HttQ44-BodipyTMR with titrations of various chaperones over a 24-hour time period.

GdmCl-denatured firefly luciferase, sequence (P08659 whole entry): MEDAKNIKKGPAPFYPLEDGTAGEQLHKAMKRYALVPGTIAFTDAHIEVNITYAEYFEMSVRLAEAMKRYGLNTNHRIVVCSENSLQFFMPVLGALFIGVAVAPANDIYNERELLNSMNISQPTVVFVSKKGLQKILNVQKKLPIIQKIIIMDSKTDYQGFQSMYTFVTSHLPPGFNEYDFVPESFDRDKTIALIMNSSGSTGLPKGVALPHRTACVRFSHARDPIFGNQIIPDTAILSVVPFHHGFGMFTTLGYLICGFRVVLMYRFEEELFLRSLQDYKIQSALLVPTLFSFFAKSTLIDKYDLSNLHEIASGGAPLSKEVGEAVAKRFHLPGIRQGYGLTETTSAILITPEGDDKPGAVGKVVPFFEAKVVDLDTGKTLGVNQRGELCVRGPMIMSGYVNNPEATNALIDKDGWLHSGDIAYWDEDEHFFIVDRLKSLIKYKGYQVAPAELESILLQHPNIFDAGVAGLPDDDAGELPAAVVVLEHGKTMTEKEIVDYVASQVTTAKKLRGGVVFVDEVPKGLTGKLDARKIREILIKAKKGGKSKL

Molecule | luciferase refolding ([1]; NAC added to the Hsp70/Hsp40 system (3.2 μM/0.8 μM), no preincubation) | luciferase refolding ([1]; NAC alone, absence of Hsp70/Hsp40, luciferase 0.02 μM, equimolar NAC) | AtxQ78 aggregation [2] | identified intermolecular crosslinks to the C-terminal region of AtxQ78 close to the expanded PolyQ stretch [3] | Aβ40 fibril formation (electron microscopy) [4] | mHttQ51 aggregation ([5]; 5× molar excess, 3 μM mHttQ51, filter trap, SDS-insoluble aggregates) | accumulation of PolyQ51 aggregates [6] | Aβ40 aggregation (ThT fluorescence) [7] | HttQ51 aggregation, titration ([5]; ApiCCT1-bNAC from 15 μM to 0.03 μM, Htt 3 μM, filter trap) | polyQ aggregation of huntingtin exon1 ([5]; system with purified components, listed as fused protein) | Htt aggregation over time (fluorescence quenching) [8]
human NAC: purified recombinant human nascent polypeptide-associated complex (αNAC and βNAC 1:1) (protein) chain 1: MTGSTETRQKEVKEPQVDVSDDSDNEAVEQELTEEQRRVAEAAGLGDHIDKQAKQSRSEKKARKLFSKLGLKQVTGVSRVCIRKSKNILFVINKPDVFKSPGSDTYIIFGEAKIEDLTQHAQMSAIENLKPTREAPQLKTVEEDENEDVEEDSTGIEEKDIELVISQANTTRNKAIRALKEADNDIVNAIMSLTM chain 2: MMDSKAIAERIKKLQAQQEHVRIGGKGTPRRKKKVIHKTAAADDKKLQSNLKKLSVTNIPGIEEVNMIKDDGTVIHFNNPKVQTSVPANTFSVTGSADNKQITEMLPGILNQLGPESLTHLKKLANNVTKLGPDGKGEDEDVPELVGDFDAASKNETKADEQ | did not enhance luciferase refolding | had no effect on luciferase refolding | delayed the aggregation of AtxQ78 | 11 out of 18 | completely suppressed Aβ40 aggregation and fibril formation | effectively suppressed aggregation | strongly delayed the accumulation of PolyQ51 aggregates | completely suppressed Aβ40 aggregation | – | – | –
ApiCCT1-bNAC: fusion protein comprising the apical domain of CCT1 fused with the bNAC N-terminal sequence at its C-terminus (protein) MGVPGYALNCTVASQAMPKRIAGGNVKIACLDLNLQKARMAMGVQINIDDPEQLEQIRKREAGIVLERVKKIIDAGAQVVLTTKGIDDLCLKEFVEAKIMGVRRCKKEDLRRIARATGATLVSSMSNLEGEETFESSYLGLCDEVVQAKFSDDECILIKGTSKAAAAALEGGSGGSMKETIMNQEKLAKLQAQVRIGGKGTARRKKKVVHRTAT | – | – | – | – | – | – | – | – | can suppress HttQ51 aggregation at sub-molar concentrations | works even more potently to inhibit huntingtin exon1 aggregation; also recorded: can suppress aggregation even at sub-molar ratios | better and more stably suppresses Htt aggregation overtime compared to the ApiCCT1 and bNAC N-terminal domain individually
